# Reference: US9151744B2, “Lung tissue model” (Pécsi Tudományegyetem, priority 2009, dated 2015)
# B1: Wnt11: Wnt11 protein, applied as supernatant (SN) of A549 cells transfected with lentiviral full-length Wnt11-IRES-GFP construct (protein, UniProt O96014 1-354, looked up)
# chain: MRARPQVCEALLFALALQTGVCYGIKWLALSKTPSALALNQTQHCKQLEGLVSAQVQLCRSNLELMHTVVHAAREVMKACRRAFADMRWNCSSIELAPNYLLDLERGTRESAFVYALSAAAISHAIARACTSGDLPGCSCGPVPGEPPGPGNRWGGCADNLSYGLLMGAKFSDAPMKVKKTGSQANKLMRLHNSEVGRQALRASLEMKCKCHGVSGSCSIRTCWKGLQELQDVAADLKTRYLSATKVVHRPMGTRKHLVPKDLDIRPVKDSELVYLQSSPDFCMKNEKVGSHGTQDRQCNKTSNGSDSCDLMCCGRGYNPYTDRVVERCHCKYHWCCYVTCRRCERTVERYVCK
# modifications: full-length
# notes: Wnt11 protein, applied as supernatant (SN) of A549 cells transfected with lentiviral full-length Wnt11-IRES-GFP construct
# How the values were obtained:
# [1] = system: SAEC-NHLF lung micro-tissue; experiment: Wnt11 SN treatment of 3D lung micro-tissue: haematoxilin-eosin morphology; format: cell-based, human; conditions: 3D micro-tissue, 72 hours, vs control A549 SN
# Description: (§1) Primary SAEC, NHLF and pulmonary HMVEC cells were purchased from Lonza. All cell types were isolated from the lungs of multiple random donors of different sexes and ages. We used SAGM, FGM or EGM-2 medium for the initial expansion of SAEC, NHLF or pulmonary HMVEC, respectively, as recommended by the manufacturer. All types of cell cultures were incubated in an atmosphere containing 5% CO2, at 37° C. For 2D and 3D culturing, pure or mixed cell populations were cultured in a 50-50% mixture of SAGM (Small Airway Growth Medium, Lonza) and complete DMEM. For two and three-cell cultures containing HMVEC cells, the appropriate growth factor supplements for HMVEC cells were added to the 50-50% mixture of SAGM and DMEM. The compositions of cell culture media were prepared in accordance with instructions of the manufacturer. For 2D and 3D culturing, cells were mixed at the indicated ratios and dispensed onto flat-bottom 6 well plates or 96-well V-bottom plates (Sarstedt), respectively. V-bottom plates were immediately centrifuged after cell seeding at 600×g for 10 minutes at room temperature.
# Retroviral infection. Retroviral supernatants were generated from retroviral vectors containing Wnt11-GFP, or green fluorescence protein (GFP) only, in 293 cells. […]
# [2] = system: SAEC-NHLF lung micro-tissue; experiment: Wnt11 treatment of 3D SAEC-NHLF lung micro-tissue: marker expression (qRT-PCR, PCR, immunofluorescence); format: cell-based, human; conditions: for AQP3 expression / E-cadherin expression / N-cadherin expression (EMT marker) / S100A4 expression (EMT marker) / SLUG expression (EMT marker): 3D cultures, Wnt11 SN vs control SN, mRNA in sorted lung epithelium; for pro-SFTPC protein expression: immunofluorescence, 3D micro-tissue, 72 hours, vs control SN
# Description: as §1
# SAEC and NHLF were stained with CFSE and DiI according to manufacturers instructions (Molecular probes). Cells were mixed and cultured for 72 hours in 2D and 3D systems. Stained cells were dissociated by mild trypsin treatment followed by PBS+EDTA treatment. Dissociated cells were sorted using a BD FACSVantage cell sorter into tubes with lysis buffer for mRNA preparation (Miltenyi Biotech).
# After culturing cells in 3D for 3 days, micro-tissues were carefully removed from the V-bottom plates and fixed in 4% formaline for 10 minutes at room temperature. Fixed samples were covered with TissueTech cryostate embedding medium and 8 μm thick frozen sections were made. Sections were permeabilized in PBS buffer containing 0.1% saponine and 5% BSA for 30 minutes. Primary and secondary antibodies were diluted in the same buffer and incubated with the samples for 1-1 hour. Fluorescent images were acquired using an Olympus IX-81 fluorescent microscope. To ensure the comparability of expression levels of SFTPC, AQP3 and N-cad in Wnt11-SN— or Wnt11 siRNA-treated samples to their matched untreated controls, all images were captured with the same exposition settings.
# Retroviral infection. Retroviral supernatants were generated from retroviral vectors containing Wnt11-GFP, or green fluorescence protein (GFP) only, in 293 cells. Epithelial cell line A549 was transformed using the above viruses in 24-well-plates, in 250 μl of viral supernatant and 50 μl of DMEM polybrene mix (final conc.: 8 μg/ml)/well, and then centrifuged for 60 min at 2100 rpm at room temperature. The cells were incubated for 3 days in fresh DMEM containing 10% FCS, then sorted based on GFP expression using FACSVantage cell sorter (BD Biosciences). GFP positive cells were then cultured as described above. The presence of Wnt11 protein were verified by immunoblotting and immunofluorescence using Wnt11 specific polyclonal antibody (AbCam) (FIG. 7).
# All samples were set up in duplicates. Briefly, Ct values were determined for each sample using an automatic threshold level determined by the 7500 System SDS Software. Delta Ct (dCt) values were determined according to the following formula: dCt(target gene)=Ct(target gene)−Ct(housekeeping gene). Changes in gene expression are shown as RQ values calculated using the next formula: RQ=2^−ddCt, where ddCt values were calculated as ddCt=dCt(sample)−dCt(reference sample).
molecule,measurement,setting,value
B1,epithelial cell morphology (HE staining),[1],increased number of cells with cuboid-like morphology
same,AQP3 expression,[2],up-regulation
same,E-cadherin expression,[2],up-regulation
same,N-cadherin expression (EMT marker),[2],down-regulation
same,S100A4 expression (EMT marker),[2],down-regulation
same,SLUG expression (EMT marker),[2],down-regulation
same,AQP3 expression,[2]; listed as Wnt11 SN,increased
same,E-cadherin expression,[2]; listed as Wnt11 SN,increased
same,N-cadherin expression (EMT marker),[2]; listed as Wnt11 SN,decreased
same,S100A4 expression (EMT marker),[2]; listed as Wnt11 SN,decreased
same,SLUG expression (EMT marker),[2]; listed as Wnt11 SN,decreased
same,SFTPA mRNA levels,"[2]; PCR, Wnt11 treated cultures vs untreated control",significant increase
same,surfactant expression (ATII type differentiation of alveolar epithelium),"[2]; all studied culture conditions, in the presence of fibroblasts",drastic boost
same,pro-SFTPC protein expression,[2],radical increase
same,pro-SFTPC protein expression,[2]; listed as Wnt11 SN,dramatic increase
